Test results: US9200265B2, “Anti-cocaine compositions and treatment” (priority 2006, dated 2015)

Key:
[1] = test system: cocaine-induced lethality; assay: Cocaine toxicity in mice, incl. repeated CocE doses; assay type: in vivo, mouse
From the text: The animal toxicity model was similar to that described previously, except as described. Male NIH Swiss mice were used. For tail intravenous injection, mice are placed in a small restraint chamber that exposes their tail. A heat lamp with an infrared, 250 w bulb is placed about 4 inches from the tail, and left for a couple of minutes. The tail is then cleansed with an alcohol wipe and a 30 G ½ precision glide needle (Fisher Scientific), is inserted into one of the side veins for infusion. To verify whether the needle is in the vein a small amount of drug is infused, if in the correct location the solution should infuse easily without any indication of an incorrect subcutaneous location, which appears white at the site of injection. For intravenous catheterization, Male NIH Swiss mice are anesthetized with ketamine 100 mg/kg and xylazine 10 mg/kg co-administered i.p. When mice are no longer responsive to paw pressure, the neck is shaved and prepped by alternating Betadine and alcohol wipes. Under clean conditions, a right transverse neck incision is made and the external jugular vein is isolated. A catheter is inserted into the vein with the aid of a dissecting microscope to the level of the right atrium, and is secured in the vein with nylon, 4-0 sutures and tissue adhesive, 3M Vetbond (3M Animal Care Products, St. Paul, Minn.). The catheters are a short length of Tygon tubing with an inner diameter of 0.010 in. and an outer diameter of 0.030 in. (Small Parts, Inc., Miami Lakes, Fla.). A small incision is made in the middle of the animal's back, and a trocar inserted subcutaneously to exit at the ventral incision site. The catheter is then pulled through the trocar and brought out the animal's back where it is held in place with nylon suture material and the tissue adhesive. A short piece of steel wire with a diameter of 0.011 in. (Small Parts, Inc., Miami Lakes, Fla.) is inserted into the end of the catheter. The ventral incision is closed with 4-0 Vicryl suture material and the mouse placed under a heat lamp for recovery. Approximately an hour later, the mouse is returned to its home cage.
Mice that survived a first administration of the combination of 0.32 mg CocE and 320 mg/kg cocaine were given this combination again, 14 days following the initial administration.

[2] = test system: WIN 35065-2 induced toxicity; assay: WIN 35065-2 induced lethality in rats; conditions: 1.0 mg CocE i.v. one minute after 560 mg/kg WIN-35065-2 i.p.
[3] = Decay of CocE activity in plasma at 37° C. or after intravenous administration into a mouse; assay type: in vitro ADME; conditions: incubation in plasma at 37° C., or after intravenous administration into a mouse
[4] = Melting temperature by circular dichroism (near-UV); assay type: physicochemical
Method: Plasmids containing the mutations were transformed into E. coli BL21 cells and IPTG-induced enzyme was purified on Ni-Agarose. Expressed proteins were then tested for enzymatic activity and for thermostability at 37° C. Enzyme activity was measured using the spectrophotometric assay as described in Example 1. Thermostability was also tested via the spectrophotometric assay by pre-incubation of both wild-type and mutants at 37° C. for various times. Additionally, the nature of the thermo-instability of both the wild-type and T172R mutant was analyzed by polyacrylamide gel electrophoresis under denaturing and non-denaturing conditions. Briefly, mutant and wild-type enzyme at 0.1 mg/ml were incubated at 37° C. for various time-points, cooled to 4° C., mixed with SDS-loading dye containing-mercaptoethanol and run on 10% SDS-PAGE gels (denaturing conditions) or run on native 10% polyacrylamide gels (non-denaturing conditions) at 4° C. Gels were fixed with 10% methanol, 7% acetic acid for 30 minutes, and then stained with Sypro-Ruby protein gel stain (Molecular Probes, Invitrogen) for 3 hours. Protein staining was visualized under UV-light using an AlphaImager™ 3400 (Alpha Innotech). Finally, the exact melting temperature of both the wild-type and T172R mutant were determined by circular dichroism using a JASCO-810 spectropolarimeter driven by a JASCO V500/FP-750 analysis program for Windows. The CD spectra were measured in millidegrees and normalized against PBS buffer.

[5] = test system: cocaine-induced lethality; assay: Rodent model of acute cocaine toxicity (convulsions and lethality) in rats; conditions: for protection against cocaine-induced lethality: one minute before 180 mg/kg cocaine
[6] = 1.0 mg i.v. one minute after cocaine i.p., rats

B1: CocE: wild-type cocaine esterase of Rhodococcus sp. MB 1, SEQ ID NO: 1, Accession No. AF173165 (protein)
chain: MVDGNYSVASNVMVPMRDGVRLAVDLYRPDADGPVPVLLVRNPYDKFDVFAWSTQSTNWLEFVRDGYAVVIQDTRGLFASEGEFVPHVDDEADAEDTLSWILEQAWCDGNVGMFGVSYLGVTQWQAAVSGVGGLKAIAPSMASADLYRAPWYGPGGALSVEALLGWSALIGTGLITSRSDARPEDAADFVQLAAILNDVAGAASVTPLAEQPLLGRLIPWVIDQVVDHPDNDESWQSISLFERLGGLATPALITAGWYDGFVGESLRTFVAVKDNADARLVVGPWSHSNLTGRNADRKFGIAATYPIQEATTMHKAFFDRHLRGETDALAGVPKVRLFVMGIDEWRDETDWPLPDTAYTPFYLGGSGAANTSTGGGTLSTSISGTESADTYLYDPADPVPSLGGTLLFHNGDNGPADQRPIHDRDDVLCYSTEVLTDPVEVTGTVSARLFVSSSAVDTDFTAKLVDVFPDGRAIALCDGIVRMRYRETLVNPTLIEAGEIYEVAIDMLATSNVFLPGHRIMVQVSSSNFPKYDRNSNTGGVIAREQLEEMCTAVNRIHRGPEHPSHIVLPIIKR
modifications: Rhodococcus sp. MB1
- survival on second administration ([1]; 0.32 mg CocE and 320 mg/kg cocaine, 14 days following the initial administration): All of the mice survived
- survival on third administration ([1]; 0.32 mg CocE and 320 mg/kg cocaine, 21 days following the first dose): All mice also survived
- time to death (average) ([1]; 1.0 gm/kg cocaine plus 1.0 mg of CocE, mice): 28 min
- shift in the potency of cocaine in producing death ([1]; both 0.32 and 1.O 'mg/kg cocaine' as printed, mice): dramatic shift to the right
- lethal effect of WIN 35065-2 under treatment with CocE [2]: not overcome
- decay of CocE activity [3]: > 50%
- detectable denaturation beginning ([4]; near-UV CD): approximately 30 °C
- melting temperature ([4]; near-UV CD (260-320 nm), curve-fitting): 36.15 °C
- protection against cocaine-induced lethality ([5]; 0.1 mg): no protection
- lethality ([5]; 0.32 mg i.v. one minute after 1 g/kg cocaine i.p., rats): 100%
- rats saved ([5]; 1 mg CocE 1 minute before cocaine (100 mg/kg)): 100%
- rats survived ([5]; 1 mg CocE 30 minutes before cocaine (100 mg/kg)): 66%
- protective effects ([5]; 1 mg CocE 100 min prior to cocaine): eliminated
- rats survived ([5]; 1 mg CocE '1 minutes' before cocaine as printed (100 mg/kg)): 32%
- time after the LD100 dose of cocaine at which the enzyme provided protection ([5]; 1 mg CocE, 100 mg/kg cocaine): up to 6 minutes
- cocaine dose required to surmount the protective properties [5, 6]: 1000 mg/kg
- shift in the cocaine-toxicity dose effect curve [5, 6]: ten-fold shift
- protection against cocaine-induced lethality ([5]; 1 mg): 100%
- duration of anti-cocaine effect ([5]; preliminary studies in rats): more than 30 minutes
